Measured values from patent US20260265381A1 (Hoffmann-La Roche, published 2026).

How the values were obtained:
[1] = biological target: T1, recombinant single-chain HLA-G monomer/human HLA-G β2M MHC class I complex (human); assay: SPR multi cycle kinetics (Biacore T200, 25 C); antibody captured via Fc on CM3 chip, HLA-G complex as analyte
T1 construct: also called wt-HLA-G complex; wt-HLA-G antigen

[2] = biological target: T1, recombinant single-chain HLA-G …; assay: SPR multi cycle kinetics
[3] = biological target: T1, recombinant single-chain HLA-G …; assay: SPR single cycle kinetics (Biacore T200, 25 C); antibody captured via Fc on CM3 chip, HLA-G complex as analyte
Procedure: The kinetic parameters were determined by a single cycle kinetic measurement on a Biacore T200 device at 25° C.

Kd [1]: 2.7 nM
koff [1]: 0.00368 s⁻¹
kon [1]: 1.36e+06 M⁻¹ s⁻¹
t½ [1]: 3.13 min
factor of loss of binding affinity compared to HLA-G-0090 [2]: 2 fold
Kd [3]: 1.8 nM
koff [3]: 0.00236 s⁻¹
kon [3]: 1.34e+06 M⁻¹ s⁻¹
t½ [3]: 4.91 min
B1: HLA-G-0090-VL-S33P (antibody, IgG1, V domains shown)
VH: QVQLQQSGPGLLKPSQTLSLTCAISGDSVSSNRAAWNWIRQSPSRGLEWLGRTYYRSKWYNDYAVSVQGRITLIPDTSKNQFSLRLNSVTPEDTAVYYCASVRAVAPFDYWGQGVLVTVSS
VL: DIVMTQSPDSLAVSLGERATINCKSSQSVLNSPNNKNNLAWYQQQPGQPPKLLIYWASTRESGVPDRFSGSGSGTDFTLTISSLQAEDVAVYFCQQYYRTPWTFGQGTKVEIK
notes: also called HLA-G-0090-S33P
